How the values were obtained:
[1] = target: Recombinant Human DLL4 (human) (UniProt Q9NR61); experiment: Biacore SPR
[2] = target: human DLL-4 expressed on the surface of CHO-K1 cells (CHO-DLL-4 cells) (human) (UniProt Q9NR61); experiment: flow cytometry (HTFC) on CHO-K1 cells stably expressing DLL-4
[3] = target: human DLL-4 expressed on the surface of CHO-K1 cells (CHO-DLL-4 cells) (human) (UniProt Q9NR61); experiment: flow cytometry competition; 20 ug/ml FITC-rhNotch-1 on CHO-DLL-4 cells, increasing antibody concentrations

| Substance | Ka [1] | Kd [1] | EC50 [2] | IC50 [3] |
| --- | --- | --- | --- | --- |
| 21M18 | 5.86e+08 M⁻¹ | 1.71 nM |  |  |
| anti-DLL-4 antibody OMP21M18 (Oncomed) |  |  | 1.7 nM | 1.72 nM |

Reference: patent publication US20130323248A1
